# Key:
# Type in all cases: cell-based, human
# GSC7 cells [1] = assay: Flow cytometry of mNGreen reporter in GSC7
# Protocol: Cells were seeded at the required density. The following day the transfection was carried out. […] Following this step, the Plus reagent/Optimem premix was added to all DNA samples followed by the Lipofectamine LTX/Optimem premix. The transfection mix was incubated for 5 min at room temperature and then carefully dropped on the cells. Generally, no media change was carried out. Cells were analysed two days following transfection.
# (§1) For flow cytometry, cells were detached, pelleted and resuspended in an appropriate volume of flow cytometry buffer (1% BSA in PBS, v/v). Cells were stained with Draq7 (Abcam, ab109202, f.c. 0.1 μM) as a live/dead stain and analysed using the BD LSRFortessa cell analyser (4 lasers, BD Bioscience).
# GSC7 cells [2] = assay: AAV2 transduction: mCherry (flow cytometry) and HSV-TKv5 (western blot) expression in GSC7; conditions: AAV2 HSV-TK-v5-P2A-mCherry cassette
# Protocol: as §1, with “Bioscience). Analysis of flow cytometry data was carried out in the FlowJo Analysis software (FlowJo, version 10.6.2).” for “Bioscience).”
# (§2) Cells were scraped in PBS and spun down at […] twice to remove all liquid. Cell pellets were resuspended in 70 μl of RIPA buffer (50 mM Tris-HCl pH 8.0, 150 mM NaCl, 1% NP-40, 0.5% deoxycholate, 0.1% SDS and protease inhibitor (Complete, Roche, 11697498001) and incubated for 5 min on ice. Lysates were centrifuged at 13000 rpm for 10 min at 4° C. (centrifuge 5415D, Eppendorf). And the supernatant was collected in a new tube. Protein extracts were quantified using the Pierce BCA Protein Assay Kit (Thermo Scientific, Cat: 23225) according to the manufacturer's instructions.
# (§3) HEK293 cells are seeded the day before the transfection into a 6 well plates so that on the day of transfection confluence would be at 60-70%. Before HEK293 cells are transfected with PEI a media change is carried out as this media will be conditioned with virus over the for two days. […] Cells are analysed on the microscope or flow cytometry. […]
# huFb170 fibroblasts = assay: AAV2 transduction: mCherry and HSV-TKv5 expression in huFb170; conditions: AAV2 HSV-TK-v5-P2A-mCherry cassette
# Protocol: as §1, with “Bioscience). Analysis of flow cytometry data was carried out in the FlowJo Analysis software (FlowJo, version 10.6.2).” for “Bioscience).”
# as §2, §3
# [3] = test system: patient-derived glioblastoma cell lines (GSC7, E17, E21, E28, E31, E34); assay: SSE-7 activity (% mCherry) across patient-derived glioblastoma cell lines
# Source text: FIG. 7: Activity of SSE-7 in a range of GSCs. (A) Schematic of the expression cassette. (B) Experimental outline, (C) Results of % mCherry expression for individual cells across the various cell lines tested. GSC7 was the positive control cell line tested (from which the fragments were initially screened). E17, E28 (previously termed G328), E21, E31, E34 refers to the five additional patient-derived glioblastoma cell lines.
# The experiment described in Example 8 was repeated in five patient-derived glioblastoma cell lines (E17, E21, E28, E31, E34).
# [4] = test system: GSC patient lines E31 and E55; assay: Lentivirus SSE-7-mCherry reporter, flow cytometry in GSC patient lines
# Source text: FIG. 14: Exemplary SSE-7 also has good activity when deployed with lentivirus. Flow cytometry quantitation of levels of mCherry reporter in GSCs transduced with lentivirus harbouring SSE-7-mCherry reporters.
molecule,measurement,setting,value
"SSE-7: synthetic super-enhancer ID4310_ID4428_ID0785_ID3836, SEQ ID NO: 70 (nucleic acid) DNA: TTGTCCTGCCTTTGAGAACACTGGAAGGGCACTGAAGGCTGACCAGCATGCACCTCACCCCACCTCCTCTCTGTCTCATCCTCAGCCATCTAAGCGGGAGACTCATCAGGCTTAAATTCTCATTCTTATCCAAGATTCTTCTGCTTCAAATGAGTCTAAATGGAGATCCTCCCATAAAGGGAGTTCTGTTTGGGCTTCCCTTGGAAGTCCATTGAAAGCGTTTCACATTTCAATGCTTCTTTACATTCTCCTCTAGAATGAATCTGGAAGGGCCATTTCATTCCAGCCCTATCAGATTTACTACTTCCTCCTGTAAGAATGAACTGGGCCCAGCTGGGCATTTGCATCAAAGTGCCTCACCAGAGTTCCCAGCTGCTCTGGCAGAGTGCCCAGGCTTGCCCCAGAGCCCAAACAGAATGCTCTTTGAGATGCCTCTGGTTTTCATACCCTTCCAGGGGAGCAGTTTCCTGGCTGTGTCGTCAGATACTGTGGTTTACGCTGTTCCGGAGTCTGGAGGTCTGTGTGCCTTTGATCTCTTTCCCAACTAATTTGCACAGCTGCTGTGGAGGCCCTCATGAATGACCTCTTTCTTTCCTTTCT","expression level compared with positive control CMV, flow cytometry",GSC7 cells [1],higher than CMV
same,fluorescence intensity compared with CMV,GSC7 cells [1],higher intensity than CMV
same,mCherry and HSV-TKv5 expression,GSC7 cells [2],driving both mCherry and HSV-TKv5 expression
same,mCherry and HSV-TKv5 expression,huFb170 fibroblasts,not in fibroblasts
same,expression,"[3]; E21, E31 and E34",lower frequency of expression
same,expression,"[3]; GSC7, E17 and E28",highly expressed and comparable to full-length CMV
same,activity across cell lines,[3]; all lines tested,active in all cell lines
same,mCherry reporter expression,[4],High levels of expression
